Assay results published in patent US20140322220A1.

B1: M021-H02-hIgG1 (antibody, V domains shown)
VH: EVQLLESGGGLVQPGGSLRLSCAASGFTFSNYGIHWVRQAPGKGLEWVAVISYDGSNKYYADSVKGRFTISRDNSKNTLYLQMNSLRAEDTAMYYCARDSSSAEDYWGQGTLVTVSS
VL: QSVLTQPPSASGTPGQRVTISCSGSSSNTGSNTVNWYQQLPGTAPKLLIYRNNQRPSGVPDRFSGSKSGTSASLAISGLRSEDEADYYCETWDSNTRGVVFGGGTKLTVL
B2: M021-H02 (soluble Fab) (Fab, V domains shown)
VH: B1 VH
VL: B1 VL
B3: M048-D01 (soluble Fab) (Fab, V domains shown)
VH: EVQLLESGGGLVQPGGSLRLSCAASGFTFSSYAMSWVRQAPGKGLEWVSAISGSGTSTYYADSVKGRFTISRDNSKNTLYLQMNSLRAEDTAVYYCARVRYNWNHGDWFDPWGQGTLVTVSS
VL: QSVLTQPPSASGTPGQRVTISCSGSSSNIGNNYVSWYQQLPGTAPKLLIYENYNRPAGVPDRFSGSKSGTSASLAISGLRSEDEADYYCSSWDDSLNYWVFGGGTKLTVL

Experiments:
[1] = molecular target: murine FGFR2 on murine cancer cell lines (murine) (UniProt P21803); test: FACS, 5 ug/ml, 4T1 cells
[2] = molecular target: human FGFR2 on human cancer cell lines (human) (UniProt P21802); test: FACS, 5 ug/ml, HEC1b cells
[3] = molecular target: human FGFR2 on human cancer cell lines (human) (UniProt P21802); test: FACS, 5 ug/ml, SNU16 cells
[4] = molecular target: human FGFR2 on human cancer cell lines (human) (UniProt P21802); test: FACS, 5 ug/ml, MFE280 cells
[5] = molecular target: human FGFR2 on human cancer cell lines (human) (UniProt P21802); test: FACS, 5 ug/ml, KATOIII cells
[6] = molecular target: human FGFR2 on human cancer cell lines (human) (UniProt P21802); test: FACS, 5 ug/ml, NCI-N87 cells
[7] = molecular target: murine FGFR2 on murine cancer cell lines (murine) (UniProt P21803); test: FACS titration 0.1-100 nM, 4T1 cells
[8] = molecular target: human FGFR2 on human cancer cell lines (human) (UniProt P21802); test: FACS titration 0.1-100 nM, SNU16 cells
[9] = molecular target: human FGFR2 on human cancer cell lines (human) (UniProt P21802); test: FACS titration 0.1-100 nM, MFM223 cells
[10] = molecular target: hFGFR2β-Fc (IIIc) (human) (UniProt P21802); test: ELISA, 1 ug/ml Fab on coated antigen; grade of signal to background (+ 2-3, ++ 3-5, +++ >5)
[11] = molecular target: mFGFR2β-Fc (IIIc) (murine) (UniProt P21803); test: as above

Row | Binder | Geo Mean minus Geo Mean of secondary antibody alone (FACS) [1] [geomean] | Geo Mean minus Geo Mean of secondary antibody alone (FACS) [2] [geomean] | Geo Mean minus Geo Mean of secondary antibody alone (FACS) [3] [geomean] | Geo Mean minus Geo Mean of secondary antibody alone (FACS) [4] [geomean] | Geo Mean minus Geo Mean of secondary antibody alone (FACS) [5] [geomean] | Geo Mean minus Geo Mean of secondary antibody alone (FACS) [6] [geomean] | EC50 [7] [nM] | EC50 [8] [nM] | EC50 [9] [nM] | ELISA signal to background ratio [10] | ELISA signal to background ratio [11]
1 | B1 | 100 to 1000 | 100 to 1000 | 100 to 1000 | 10 to 100 | > 10000 | 10 to 100 | 20.8 | 89.5 | 16.9 | – | –
2 | B2 | – | – | – | – | – | – | – | – | – | > 5 | > 5
3 | B3 | – | – | – | – | – | – | – | – | – | > 5 | > 5
